Laboratory results published in US20020142355A1 (BAYLOR COLLEGE OF MEDICINE, published 2002).

B1: adenovirus type 5 fiber protein with the C-terminal 70 amino acid PSTCD domain (biotinylated) (other)
chain: MKRARPSEDTFNPVYPYDTETGPPTVPFLTPPFVSPNGFQESPPGVLSLRLSEPLVTSNGMLALKMGNGLSLDEAGNLTSQNVTTVSPPLKKTKSNINLEISAPLTVTSEALTVAAAAPLMVAGNTLTMQSQAPLTVHDSKLSIATQGPLTVSEGKLALQTSGPLTTTDSSTLTITASPPLTTATGSLGIDLKEPIYTQNGKLGLKYGAPLHVTDDLNTLTVATGPGVTINNTSLQTKVTGALGFDSQGNMQLNVAGGLRIDSQNRRLILDVSYPFDAQNQLNLRLGQGPLFINSAHNLDINYNKGLYLFTASNNSKKLEVNLSTAKGLMFDATAIAINAGDGLEFGSPNAPNTNPLKTKIGHGLEFDSNKAMVPKLGTGLSFDSTGAITVGNKNNDKLTLWTTPAPSPNCRLNAEKDAKLTLVLTKCGSQILATVSVLAVKGSLAPISGTVQSAHLIIRFDENGVLLNNSFLDPEYWNFRNGDLTEGTAYTNAVGFMPNLSAYPKSHGKTAKSNIVSQVYLNGDKTKPVTLTITLNGTQETGDTTPSAYSMSFSWDWSGHNYINEIFATSSYTFSYIAQEEGEIPAPLAGTVSKILVKEGDTVKAGQTVLVLEAMKMETEINAPTDGKVEKVLVKERDAVQGGQGLIKIG
modifications: biotin on lysine 89 of PSTCD (numbering of FIG. 1, full length PSTCD)
notes: also called fiber/PSTCD fusion protein; fiber of the biotinylated adenovirus
B2: adenovirus type 5 fiber protein joined to full length PSTCD (other)
chain: MKRARPSEDTFNPVYPYDTETGPPTVPFLTPPFVSPNGFQESPPGVLSLRLSEPLVTSNGMLALKMGNGLSLDEAGNLTSQNVTTVSPPLKKTKSNINLEISAPLTVTSEALTVAAAAPLMVAGNTLTMQSQAPLTVHDSKLSIATQGPLTVSEGKLALQTSGPLTTTDSSTLTITASPPLTTATGSLGIDLKEPIYTQNGKLGLKYGAPLHVTDDLNTLTVATGPGVTINNTSLQTKVTGALGFDSQGNMQLNVAGGLRIDSQNRRLILDVSYPFDAQNQLNLRLGQGPLFINSAHNLDINYNKGLYLFTASNNSKKLEVNLSTAKGLMFDATAIAINAGDGLEFGSPNAPNTNPLKTKIGHGLEFDSNKAMVPKLGTGLSFDSTGAITVGNKNNDKLTLWTTPAPSPNCRLNAEKDAKLTLVLTKCGSQILATVSVLAVKGSLAPISGTVQSAHLIIRFDENGVLLNNSFLDPEYWNFRNGDLTEGTAYTNAVGFMPNLSAYPKSHGKTAKSNIVSQVYLNGDKTKPVTLTITLNGTQETGDTTPSAYSMSFSWDWSGHNYINEIFATSSYTFSYIAQEKLKVTVNGTAYDVDVDVDKSHENPMGTILFGGGTGGAPAPAAGGAGAGKAGEGEIPAPLAGTVSKILVKEGDTVKAGQTVLVLEAMKMETEINAPTDGKVEKVLVKERDAVQGGQGLIKIG
modifications: biotin on lysine 89 of PSTCD (numbering of FIG. 1)
notes: also called fiber-PSTCD, full length form

Biological target: the molecule itself
Experiment: Western blot of transfected cells, self-association (trimer) of the fiber fusion

Protein | binding result
B1 | binds
B2 | no binding
